± gives the uncertainty stated by the source.
assay: amyloid nucleation score (Sup35N fusion, yeast selection) (log enrichment); library NNK2; higher = more nucleation; inactive = no reads after selection
How it was run: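 Sup35N fusions to peptides of 20 random codons were expressed in psi-negative yeast, induced 24 hours with 100 μM copper sulfate, and grown 7 days at 30°C on medium lacking adenine and uracil. Input and output plasmid inserts were sequenced by Illumina. The nucleation score is the DiMSum log enrichment of output over input reads, centred on the mode score of non-aggregating sequences. Sequences with under 100 input reads were excluded.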

Compared with GKLHIRIWQDSVWLGDLRL, IAVNMCSFFVSDLHPMRWGY is higher in amyloid nucleation score: 3.82 ± 0.063 for the first, 7.495 ± 0.035 for the second.

First: VLEGIYLLMKVCLIYPRSYD
Second: RRETRMGVSSVLDPVAGRWP
The amyloid nucleation score of the first is lower: -1.8 ± 1.1 for the first, 1.58 ± 0.17 for the second.

Going from CMGNSYFMFNSYANFKNNWA to PCLKGVITLLLKGPGPHRVN, the amyloid nucleation score falls from 5.54 ± 0.093 to 0.091 ± 0.42.

First: CLGKSRYCISDWKFLSLWPN
Second: LSDRRFKDLMSTFRNAATYF
The amyloid nucleation score of the first is lower: -0.932 ± 0.55 for the first, 6.34 ± 0.047 for the second.

First: PMEWKPALPKTIVADARMRG
Second: LNLLDGWFL
The amyloid nucleation score of the first is higher: 0.48 ± 0.3 for the first, -0.7 ± 0.48 for the second.

VSVGNPFSVNRQVYCPTTEW and NYPSVGSDIARLLRLVTRRI are within error of each other in amyloid nucleation score: -1.38 ± 0.62 for the first, -0.313 ± 0.76 for the second.

Compared with ANCCLRTWVFCRSYCYIILF, FFNMMSK is lower in amyloid nucleation score: -0.014 ± 0.8 for the first, -1.72 ± 0.62 for the second.

HKGVM and FWRLWIVCIPLVYLRR are within error of each other in amyloid nucleation score: -1.06 ± 0.5 for the first, 0.131 ± 1 for the second.

Going from RSMYFGVQSLMYRSRLPKGS to GYNTRKYWISGYNTTDSPGK, the amyloid nucleation score falls from 4.01 ± 0.067 to -1.13 ± 0.35.

Compared with SRDVLVLIGYFSCGVIDSAL, LVSLVQRYLDHRPDNKM is lower in amyloid nucleation score: 5.16 ± 0.082 for the first, -0.05 ± 0.48 for the second.

First: MSLTIWGICRCKQ
Second: SRMRVLFALLQDFQSHVGSV
The amyloid nucleation score of the first is lower: -0.097 ± 0.76 for the first, 1.36 ± 0.11 for the second.

Going from RLEEDGSD to VMKFMWKMMLNRERAPYHVL, the amyloid nucleation score falls from 7.125 ± 0.067 to -0.784 ± 0.49.

Going from VKQWT to MGIMPQITLDLNLLYLGKVL, the amyloid nucleation score falls from 1.74 ± 0.24 to 0.14 ± 0.35.

Going from PRSYWRSYWAKVLDYQLIPR to VIFTGKDLLVSLQTKCLAVW, the amyloid nucleation score falls from 3.55 ± 0.07 to 0.942 ± 0.81.

QPCQSNSINDIHRRAGFGPL and FRLYFHPGVNGAET are within error of each other in amyloid nucleation score: -0.437 ± 0.64 for the first, -0.356 ± 0.64 for the second.

Going from SNVRWKRGYGDNTILGGSLT to NFDSYVYNVASVFYVVGLGV, the amyloid nucleation score rises from 1.51 ± 0.31 to 5.321 ± 0.048.

Compared with NFLWPCRIHVQGCIHISDTD, NLNFKDGPGDLTCMRDRAFS is lower in amyloid nucleation score: 6.171 ± 0.045 for the first, -0.508 ± 0.63 for the second.

CLIDFWKRDFKSAVDSKGTA and EGAVLRLALGVGTNLNQLSV are within error of each other in amyloid nucleation score: 0.125 ± 0.65 for the first, 0.098 ± 0.37 for the second.

Going from LHCYCDLDDALTNPPAHHSR to HVSNSFKSFCN, the amyloid nucleation score rises from 0.605 ± 0.34 to 1.52 ± 0.2.

GVNKVT and NRCLGIT are within error of each other in amyloid nucleation score: 0.115 ± 1 for the first, 0.231 ± 0.48 for the second.

Compared with FVMNGPLWMTLANMSMNHNL, RLDMYGLLINWSSVCLYNNI is lower in amyloid nucleation score: 4.21 ± 0.06 for the first, 0.257 ± 0.21 for the second.

FDLWIPGAVVEVIDMGSAAR and CTCNLWYTLMCAFHASRLVH are within error of each other in amyloid nucleation score: 0.651 ± 0.44 for the first, 0.327 ± 0.34 for the second.

Going from EIFIPCEWGIVIHQGHAVSQ to SHTITSGWCAGWIGFSPICR, the amyloid nucleation score falls from 4.46 ± 0.076 to 0.932 ± 0.32.

First: NIFRMHLGQASQVIIFLDCR
Second: KMVYGLQGWLGLGSTVFWSP
The amyloid nucleation score of the first is higher: 4.58 ± 0.12 for the first, 3.2 ± 0.13 for the second.

LLYTTCSFGYLMQKFVL and RINGRRWGFTWVASGLEYFG are within error of each other in amyloid nucleation score: 1.58 ± 0.31 for the first, 1.87 ± 0.11 for the second.

Going from ERNYVT to THWSCSSKLFGEFGWNFVWK, the amyloid nucleation score rises from -0.525 ± 1.1 to 2.89 ± 0.067.

WLLPTTSLLSSQPAQAFRDH and PPLYSFVQYMRGFANNVISG are within error of each other in amyloid nucleation score: -0.363 ± 0.49 for the first, 0.227 ± 0.49 for the second.

Compared with SQCARKYVVASVSMLTDVTH, YVAILFRFRRSIMFNLLIQM is lower in amyloid nucleation score: 1.13 ± 0.31 for the first, -0.318 ± 0.8 for the second.

Compared with LLNFGVLGSDLSINKCNFSS, RSIDRYRHHNLCRNQYVM is lower in amyloid nucleation score: 1.89 ± 0.18 for the first, -0.693 ± 1.1 for the second.

Compared with NFQVNMFVMF, NPYINLLRFIDSDSSALV is lower in amyloid nucleation score: 8.986 ± 0.027 for the first, -1.35 ± 1.1 for the second.

Going from MGAVESGKSRSMCAVLAWSE to NSDRL, the amyloid nucleation score falls from 1.02 ± 0.41 to -0.794 ± 0.45.

LFSTTRFVAHKAGR and SFDTCRSLIRLYHVPPRTVL are within error of each other in amyloid nucleation score: 0.47 ± 0.33 for the first, -0.276 ± 0.61 for the second.

HCVDLLREMQ and SIGVSDGNPGRAVGGGLMGH are within error of each other in amyloid nucleation score: 0.621 ± 0.43 for the first, 0.098 ± 0.49 for the second.

Going from SLADS to QSESVVRHWGMRWR, the amyloid nucleation score rises from -0.802 ± 0.63 to 0.729 ± 0.29.

First: IYFWDTLTFLLSCLHAAGEN
Second: KLMWERTFVCSRKRFKTYYK
The amyloid nucleation score of the first is lower: -1.87 ± 0.64 for the first, -0.359 ± 0.41 for the second.

Compared with STRKCFLMLILTRFGMCC, VRFSQKYCSVDIAMQRLFMV is lower in amyloid nucleation score: 0.603 ± 0.38 for the first, -0.625 ± 0.25 for the second.

IGLTLHMRRVVGAKSFKMPL and PPDSTWYC are within error of each other in amyloid nucleation score: 0.29 ± 0.77 for the first, 0.452 ± 0.53 for the second.

Compared with SLFYVTLAPTSWICGTARC, KVNKMPYSLFIYLKKLNFC is lower in amyloid nucleation score: 1.43 ± 0.41 for the first, -0.518 ± 1.1 for the second.

In the case of TYIRSVYDAFAC, the amyloid nucleation score is reported as “inactive”.
For LNSYRPWCWY, the amyloid nucleation score was “inactive”.
For DFFMTPGTLGIGTLSNISFY, the amyloid nucleation score was “inactive”.
For NGGLLYDI, the amyloid nucleation score was “inactive”.
In the case of NNRYELCSSQH, the amyloid nucleation score is reported as “inactive”.
For YYKQWG, the amyloid nucleation score was “inactive”.
In the case of HSSAFMRMLMFRELRRNSDP, the amyloid nucleation score is reported as “inactive”.
For FHGPKYMSILRGELICKAPG, the amyloid nucleation score was “inactive”.
For SQMSGSFRRSNGWIAV, the amyloid nucleation score was “inactive”.

Reference: the supplement of paper PMC12042874
